Experimental data as given in patent CN115975019A (INST PATHOGEN BIOLOGY CAMS, dated 2023).

Molecular target: T1, SARS-CoV-2 刺突ECD蛋白 (Sinobiological) (SARS-CoV-2, UniProt P0DTC2 14-1213)
T1 construct: extracellular domain; also called Spike ECD蛋白
Assay: ELISA, spike ECD coated 50 ng/well, antibody titrated

B1: A46抗体 (antibody, V domains shown)
VH: EVQLLESGGGLIQPGGSLRLSCAVSEFIVSRNYMSWVRQAPGKGLEWVSVLYPGGSTFYADSVKGRFTISRDESTNTLFLQMNTLRVEDTAVYYCARDFGDFYFDFWGQGTLVTVSS
VL: EIVLTQSPGTLSLSPGQRAALSCRASQSVSTYLAWYQQKPGQAPRLLIHDASSRASGVPDRFSGTGSGTDFTLTITRLEPEDFAVYYCQQYGTSPRTFGQGTKLEIK
notes: also called 抗体A46
EC50: 0.0261 µg/mL

B2: A70抗体 (antibody, V domains shown)
VH: QITLKESGPTLVKPTQTLTLTCTFSGFSLDTPGVAIGWIRQPPGRALEWLGLIYWDGDERYNPSLTSRVTLTKDTSKNQVVLTMTNVDSVDTGTYFCGHKTIPTIFGVWGQGAPVTVSS
VL: QSALTQPASVSGSPGQSITISCAATSGDFGVFNYVSWYQQHPGKAPKLIIFEVSSRPSGVSNRFSGSKSGNTASLTVSGLQAEDEAVYHCSSYSTSSVVFGGGTKLTVL
notes: also called 抗体A70
EC50: 0.0351 µg/mL
